Measured values: publication PMC7509987
Where two headings read alike, the source gives them in different places.

Key:
Assay type in all cases: biochemical
Conditions in all cases: pH 7.0; 22.0 °C
[1] = substrate: NCC[Se][Se]CCN
[2] = substrate: O=C(O)c1cc(SSc2ccc([N+](=O)[O-])c(C(=O)O)c2)ccc1[N+](=O)[O-]
[3] = substrate: NCC[Se][Se]CCN; remark: listed apart in the source
[4] = substrate: O=C(O)c1cc(SSc2ccc([N+](=O)[O-])c(C(=O)O)c2)ccc1[N+](=O)[O-]; remark: listed apart in the source

B1: mTrxR-CUG (Mus musculus) (protein)
chain: GGQQSFDLLVIGGGSGGLACAKEAAQLGKKVAVADYVEPSPRGTKWGLGGTCVNVGCIPKKLMHQAALLGGMIRDAHHYGWEVAQPVQHNWKTMAEAVQNHVKSLNWGHRVQLQDRKVKYFNIKASFVDEHTVRGVDKGGKATLLSAEHIVIATGGRPRYPTQVKGALEYGITSDDIFWLKESPGKTLVVGASYVALECAGFLTGIGLDTTVMMRSIPLRGFDQQMSSLVTEHMESHGTQFLKGCVPSHIKKLPTNQLQVTWEDHASGKEDTGTFDTVLWAIGRVPETRTLNLEKAGISTNPKNQKIIVDAQEATSVPHIYAIGDVAEGRPELTPTAIKAGKLLAQRLFGKSSTLMDYSNVPTTVFTPLEYGCVGLSEEEAVALHGQEHVEVYHAYYKPLEFTVADRDASQCYIKMVCMREPPQLVLGLHFLGPNAGEVTQGFALGIKCGASYAQVMQTVGIHPTCSEEVVKLHISKRSGLEPTVTGCUG
[1]
  Km: 79 ± 0.7 µM
  kcat: 62.3 ± 7.5 s⁻¹
  kcat/Km: 783000 M⁻¹ s⁻¹
[2]
  Km: 3 ± 0.7 µM
  kcat: 52.8 ± 7.5 s⁻¹
  kcat/Km: 1.83e+07 M⁻¹ s⁻¹

B2: mTrxRΔ3 (Mus musculus) (protein)
chain: GGQQSFDLLVIGGGSGGLACAKEAAQLGKKVAVADYVEPSPRGTKWGLGGTCVNVGCIPKKLMHQAALLGGMIRDAHHYGWEVAQPVQHNWKTMAEAVQNHVKSLNWGHRVQLQDRKVKYFNIKASFVDEHTVRGVDKGGKATLLSAEHIVIATGGRPRYPTQVKGALEYGITSDDIFWLKESPGKTLVVGASYVALECAGFLTGIGLDTTVMMRSIPLRGFDQQMSSLVTEHMESHGTQFLKGCVPSHIKKLPTNQLQVTWEDHASGKEDTGTFDTVLWAIGRVPETRTLNLEKAGISTNPKNQKIIVDAQEATSVPHIYAIGDVAEGRPELTPTAIKAGKLLAQRLFGKSSTLMDYSNVPTTVFTPLEYGCVGLSEEEAVALHGQEHVEVYHAYYKPLEFTVADRDASQCYIKMVCMREPPQLVLGLHFLGPNAGEVTQGFALGIKCGASYAQVMQTVGIHPTCSEEVVKLHISKRSGLEPTVTG
[3]
  Km: 1033 ± 114 µM
  kcat: 1.27 ± 0.0667 s⁻¹
  kcat/Km: 1220 M⁻¹ s⁻¹
[4]
  Km: 12 ± 2.7 µM
  kcat: 48.3 ± 8.33 s⁻¹
  kcat/Km: 4e+06 M⁻¹ s⁻¹
